This is an account of results in publication PMC5457915, “Real-time analysis of the binding of fluorescent VEGF165a to VEGFR2 in living cells: Effect of receptor tyrosine kinase inhibitors and fate of internalized agonist-receptor complexes” (Biochemical Pharmacology, 2017).

Values joined by “and” are separate entries in the source; they are usually repeats but may differ in a detail not shown here. Identical values can stand only once. “Also recorded” adds a separate entry of the source.

Assay [1] concerns the target T1, VEGFR2 (Homo sapiens, UniProt P35968). Kind of assay: Confocal / structured illumination microscopy of VEGF165a-TMR and VEGFR2 location after RTKI pre-treatment. The format is cell-based. The arrangement: full length VEGFR2, tagged with the bioluminescent protein NanoLuc; IL-6 signal peptide (N); expressed in transfected cells. The conditions noted are these: RTKI 30 min pre-incubation, then 10 nM VEGF165a-TMR 30 min. As to the method: On the day of the assay, cells were washed three times with HBSS/0.1% protease free BSA (vehicle). Receptor tyrosine kinase inhibitors were added at this point as aliquots to the appropriate wells and cells incubated for 30 min at 37 °C. Cells were then stimulated with 10 nM VEGF165a-TMR for 30 min at 37 °C in the dark.
All cells were then fixed using 3% PFA/PBS (10 min at room temperature), washed with PBS and mounted onto slides using Prolong Gold antifade reagent (P10144; Thermo Fisher Scientific, USA). TetraSpeck™ microspheres (0.1 μm; T7279, Thermo Fisher Scientific, USA) were included in each experiment to allow X/Y/Z channel alignment correction in image processing. […] Images were manually processed with consistent raw scaling between and within experiments.

In assay [2] the target is T2, NLuc-VEGFR2 (Homo sapiens, UniProt P35968).
T2 construct: full length VEGFR2, tagged with the bioluminescent protein NanoLuc; IL-6 signal peptide (N); expressed in transfected cells
T2 sequence (P35968 20-1356): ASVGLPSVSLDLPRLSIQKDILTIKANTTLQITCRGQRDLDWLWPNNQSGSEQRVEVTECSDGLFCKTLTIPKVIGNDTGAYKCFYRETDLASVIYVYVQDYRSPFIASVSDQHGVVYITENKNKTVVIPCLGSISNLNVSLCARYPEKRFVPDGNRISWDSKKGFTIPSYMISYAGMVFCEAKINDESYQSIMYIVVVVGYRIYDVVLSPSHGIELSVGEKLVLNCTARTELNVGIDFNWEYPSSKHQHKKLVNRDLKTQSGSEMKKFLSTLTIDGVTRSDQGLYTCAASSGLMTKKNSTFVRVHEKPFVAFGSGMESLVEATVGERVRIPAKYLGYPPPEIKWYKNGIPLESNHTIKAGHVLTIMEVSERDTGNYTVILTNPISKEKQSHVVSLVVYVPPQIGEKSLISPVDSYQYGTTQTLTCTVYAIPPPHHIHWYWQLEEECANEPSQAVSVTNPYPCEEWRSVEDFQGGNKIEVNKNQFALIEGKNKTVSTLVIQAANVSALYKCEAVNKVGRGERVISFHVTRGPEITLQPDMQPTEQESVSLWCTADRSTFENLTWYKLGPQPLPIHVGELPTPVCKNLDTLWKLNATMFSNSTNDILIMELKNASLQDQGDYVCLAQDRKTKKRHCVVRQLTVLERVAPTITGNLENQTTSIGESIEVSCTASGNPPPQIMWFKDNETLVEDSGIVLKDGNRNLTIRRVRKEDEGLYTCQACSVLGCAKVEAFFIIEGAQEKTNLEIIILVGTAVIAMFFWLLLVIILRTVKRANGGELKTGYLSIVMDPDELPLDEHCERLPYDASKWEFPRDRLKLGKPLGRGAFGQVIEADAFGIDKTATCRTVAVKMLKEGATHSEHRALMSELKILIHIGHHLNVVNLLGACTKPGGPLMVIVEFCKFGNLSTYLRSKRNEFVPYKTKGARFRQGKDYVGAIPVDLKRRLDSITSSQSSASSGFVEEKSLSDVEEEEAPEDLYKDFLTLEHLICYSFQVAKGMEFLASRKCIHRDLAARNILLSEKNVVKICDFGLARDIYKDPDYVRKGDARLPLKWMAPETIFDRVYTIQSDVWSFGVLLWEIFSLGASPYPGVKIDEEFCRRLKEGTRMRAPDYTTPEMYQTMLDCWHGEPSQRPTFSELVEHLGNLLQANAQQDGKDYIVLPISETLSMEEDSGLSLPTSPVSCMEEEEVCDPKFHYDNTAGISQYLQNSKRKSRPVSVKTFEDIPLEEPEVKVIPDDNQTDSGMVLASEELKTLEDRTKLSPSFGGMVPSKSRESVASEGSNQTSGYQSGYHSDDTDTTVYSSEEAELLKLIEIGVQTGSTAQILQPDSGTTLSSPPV
Kind of assay: NanoBRET ligand binding (saturation/competition) in living HEK293T NLuc-VEGFR2 cells. The conditions noted are these: maximal response relative to binding of VEGF165a-TMR alone; RTKI 30 min pre-treatment, 60 min ligand. The method, then:
On the day of the assay, medium was replaced with 50 μl per well HBSS/0.1% protease free BSA. Where appropriate, RTKIs were added 30 min prior to agonist. For competition experiments, a fixed concentration of fluorescent VEGF165a-TMR was added simultaneously with competing unlabeled VEGF isoforms to triplicate wells for the time specified (10, 30 or 60 min) and plates co-incubated at 37 °C in the dark. For saturation experiments a range of concentrations of VEGF165a-TMR were added in the presence or absence of a competing concentration (30 nM) of unlabeled VEGF165a and incubated for 60 min at 37 °C in the dark. The NanoLuc substrate furimazine (N1130; Promega Corporation, USA) was then added at a final concentration of 10 μM. […] For all experiments, sequential recordings were performed at room temperature using a PHERAstar FS plate reader (BMG Labtech, Germany) using 460 nm (80 nm bandpass; donor NanoLuc emission) and >610 nm longpass filters (acceptor emission). Raw BRET ratios were calculated from the ratio of acceptor to donor emission values. For real-time ligand association kinetics experiments, cells were incubated with vehicle for 30 min at 37 °C. Furimazine (10 μM) was then added and plates equilibrated at 37 °C in the PHERAstar FS plate reader for 5 min.
Equilibrium binding: All data were analysed using Prism 6 (GraphPad; San Diego, CA, USA). NanoBRET competition experiments were fitted as raw BRET ratios using non-linear least squares regression (variable slope) with no constraints used. Saturation curves were fitted simultaneously for total (VEGF165a-TMR alone) and non-specific binding (top concentration of competing VEGF165a alone) using both one and two site fits. Background and non-specific binding parameters were shared across all data sets.
Binding affinities (Ki) of the unlabeled ligands were calculated using the Cheng-Prusoff equation: Ki=IC50/1+[L]/KD where [L] is the concentration of fluorescent ligand used (nM). KD values (nM) were derived from saturation binding curves. […]
On the technique in general: BRET reads energy transfer from a luciferase to a nearby fluorophore.

Assay [3] has as its target NLuc-VEGFR2 (full length human VEGFR2 with NanoLuc on its N-terminus) (human) (UniProt P35968). Briefly: FRET or BRET; NanoBRET competition on living HEK293T NLuc-VEGFR2 cells; vehicle 30 min at 37 °C, then VEGF165a-TMR (0.5-3 nM) with unlabeled VEGF165a for 30 min at 37 °C.
The target is the same in assay [4]. Briefly: FRET or BRET; NanoBRET competition on living HEK293T NLuc-VEGFR2 cells; 1 μM cediranib 30 min at 37 °C, then VEGF165a-TMR (0.5-3 nM) with unlabeled VEGF165a for 30 min at 37 °C.
For assay [5] the target is unchanged. Kind of assay: FRET or BRET; NanoBRET competition on living HEK293T NLuc-VEGFR2 cells; 1 μM cediranib 30 min at 37 °C, then VEGF165a-TMR (0.5-3 nM) with unlabeled VEGF165a for 60 min at 37 °C.
For assay [6] the target is unchanged. Briefly: FRET or BRET; NanoBRET competition on living HEK293T NLuc-VEGFR2 cells; vehicle 30 min at 37 °C, then VEGF165a-TMR (0.5-3 nM) with unlabeled VEGF165a for 10 min at 37 °C.
Assay [7] has the same target. Kind of assay: FRET or BRET; NanoBRET competition on living HEK293T NLuc-VEGFR2 cells; fixed VEGF165a-TMR (0.1-3 nM) added simultaneously with increasing unlabeled VEGF isoform, 60 min at 37 °C, HBSS/0.1% BSA; IC50 (molar) converted to pKi by Cheng-Prusoff; also linear regression of IC50 against [VEGF165a-TMR]; apparent.
Assay [8] has the same target. Kind of assay: FRET or BRET; NanoBRET competition on living HEK293T NLuc-VEGFR2 cells; vehicle 30 min at 37 °C, then VEGF165a-TMR (0.5-3 nM) with unlabeled VEGF165a for 60 min at 37 °C.
Assay [9] has the same target. Briefly: FRET or BRET; NanoBRET competition on living HEK293T NLuc-VEGFR2 cells; 1 μM cediranib 30 min at 37 °C, then VEGF165a-TMR (0.5-3 nM) with unlabeled VEGF165a for 10 min at 37 °C.
Assay [10] shares this target. Kind of assay: FRET or BRET; NanoBRET saturation on living HEK293T NLuc-VEGFR2 cells, without cediranib (Fig. 6b).
Assay [11] deals with VEGF165a-TMR (fluorescent VEGF165a labeled with 6-TMR-PEG-CBT on a single N-terminal cysteine of each protomer) (human). Kind of assay: fluorescence correlation spectroscopy; solution FCS of VEGF165a-TMR (0.25-10 nM) in HBSS with 0.1% protease-free BSA; also without BSA and with 10 mM DTT (30 min at 37 °C); number of fluorescent particles against the concentration calculated for a dimer.

Assay [12] deals with NLuc-VEGFR2 (full length human VEGFR2 with NanoLuc on its N-terminus) (human) (UniProt P35968). Briefly: FRET or BRET; NanoBRET saturation on living HEK293T NLuc-VEGFR2 cells, 30 min pre-incubation with 1 μM cediranib (Fig. 6b).
Sequence of NLuc-VEGFR2 (full length human VEGFR2 with NanoLuc on its N-terminus) (human) (P35968 20-1356): as above
The target is the same in assay [13]. Briefly: FRET or BRET; NanoBRET saturation on living HEK293T NLuc-VEGFR2 cells; VEGF165a-TMR 0.1-3 nM with or without 30 nM unlabeled VEGF165a (non-specific binding), 60 min at 37 °C, HBSS/0.1% BSA; one site fit; apparent.
For assay [14], the target named is VEGF165a-TMR (fluorescent VEGF165a labeled with 6-TMR-PEG-CBT on a single N-terminal cysteine of each protomer) (human). Briefly: SDS-PAGE with and without DTT, fluorescence scan; purified VEGF165a-TMR in the presence or absence of 100 mM DTT, scanned on a Typhoon 9400 (Ex 532 nm, Em 580 nm).
For assay [15], the target named is NLuc-VEGFR2 (full length human VEGFR2 with NanoLuc on its N-terminus) (human) (UniProt P35968). Briefly: FRET or BRET; NanoBRET real-time association kinetics on living HEK293T NLuc-VEGFR2 cells; VEGF165a-TMR 1-20 nM, read every 30 s for 16 min at 37 °C; kobs against concentration, linear only at the three lowest concentrations.
The target in assay [16] is T1, VEGFR2. Briefly: NFAT luciferase reporter gene assay in HEK293T ReLuc2P cells stably expressing wild-type VEGFR2. It is filed as cell-based. The arrangement: in cells expressing the wild-type VEGFR2 receptor; host or cells: HEK293T ReLuc2P suspension cell line. The conditions noted are these: cells expressing the wild-type VEGFR2 receptor; n = 4. The method, then:
NFAT luciferase reporter gene activity was monitored in a HEK293T ReLuc2P (Promega Corporation, USA) suspension cell line stably expressing VEGFR2 as described previously.
NFAT reporter genes: All data obtained from the NFAT luciferase reporter gene assays were normalised to 10 nM VEGF165a responses and fitted with non linear regression using the equation as described previously.
Background: In a reporter assay the amount or activity of a reporter protein is the signal.

T1 sequence (P35968 20-1356): as above

Consider `COc1cc2c(Oc3ccc4[nH]c(C)cc4c3F)ncnc2cc1OCCCN1CCCC1` [Cediranib], for which, in [1], the “effect on VEGFR2 internalization by VEGF165a-TMR / cellular location of VEGF165a-TMR” value is “prevented; also recorded: largely localised to the cell membrane”. Also, the “NanoBRET % Increase in binding of 10 nM VEGF165a-TMR” value in [2] is 139.0 ± 4.4% and 139.0 ± 2.0 (4) %.
On to `Cc1ccc(Nc2nccc(N(C)c3ccc4c(C)n(C)nc4c3)n2)cc1S(N)(=O)=O` [Pazopanib], for which the “effect on VEGFR2 internalization by VEGF165a-TMR / cellular location of VEGF165a-TMR” value in [1] is reported as “prevented”. The “NanoBRET % Increase in binding of 10 nM VEGF165a-TMR” value in assay [2] is listed as 144.8 ± 3.5 (4) %.
On the same counts, the results for `COc1cc2c(Nc3ccc(Br)cc3F)ncnc2cc1OCC1CCN(C)CC1` [Vandetanib] are “prevented” and 152.8 ± 7.1 (4) %.
On to “VEGF165a (recombinant human, R&D Systems) (ligand)”, for which the pKi (usually the negative decadic logarithm of the Ki, by convention in mol/L) in assay [3] came to 8.99; in [4] it was 9.23; in [5], 9.18; in [6], 8.93; in assay [7], 9.81; in assay [8] it was 9.28. In addition, the pKi in assay [9] was 9.17. Besides, in assay [7], the Ki stood at 0.22 nM.
Take “VEGF165a-TMR (fluorescent VEGF165a labeled with 6-TMR-PEG-CBT on a single N-terminal cysteine of each protomer) (ligand)”: the Kd was 1.14 nM in assay [10]; 1.18 nM in [12]; 0.92 nM in assay [13]; 0.85 nM in assay [7]; 2.27 nM in [15]. The stoichiometry N in assay [11] and in [14] was 2 each time. Moreover, the koff – broadly, a measure of how fast the partners let go of each other – in [15] was 0.00183 s⁻¹. Further, the kon (as a rule, a measure of how fast the partners come together) in assay [15] stood at 797000 M⁻¹ s⁻¹.

B1: non-fluorescent VEGF165a: unlabeled VEGF165a purified in an identical manner to VEGF165a-TMR, with modified N-terminus (protein)
chain: CDNAPMAEGGGQNHHEVVKFMDVYQRSYCHPIETLVDIFQEYPDEIEYIFKPSCVPLMRCGGCCNDEGLECVPTEESNITMQIMRIKPHQGQHIGEMSFLQHNKCECRPKKDRARQENPCGPCSERRKHLFVQDPQTCKCSCKNTDSRCKARQLELNERTCRCDKPRR
modifications: free N-terminal Cys (unlabeled); HEK293T-expressed, glycosylated; disulfide-linked antiparallel homodimer
B1: in assay [16], the “pEC50, NFAT reporter gene agonist activity” value was found to be 9.72 ± 0.09.
